Data from IntAct's records for PubMed 35512704.

B1: Mothers against decapentaplegic homolog 4 (Homo sapiens), Q13485 (parent)
chain: MDNMSITNTPTSNDACLSIVHSLMCHRQGGESETFAKRAIESLVKKLKEKKDELDSLITAITTNGAHPSKCVTIQRTLDGRLQVAGRKGFPHVIYARLWRWPDLHKNELKHVKYCQYAFDLKCDSVCVNPYHYERVVSPGIDLSGLTLQSNAPSSMMVKDEYVHDFEGQPSLSTEGHSIQTIQHPPSNRASTETYSTPALLAPSESNATSTANFPNIPVASTSQPASILGGSHSEGLLQIASGPQPGQQQNGFTGQPATYHHNSTTTWTGSRTAPYTPNLPHHQNGHLQHHPPMPPHPGHYWPVHNELAFQPPISNHPAPEYWCSIAYFEMDVQVGETFKVPSSCPIVTVDGYVDPSGGDRFCLGQLSNVHRTEAIERARLHIGKGVQLECKGEGDVWVRCLSDHAVFVQSYYLDREAGRAPGDAVHKIYPSAYIKVFDLRQCHRQMQQQAATAQAAAAAQAAAVAGNIPGPGSVGGIAPAISLSAAAGIGVDDLRRLCILRMSFVKGWGPDYPRQSIKETPCWIEIHLHRALQLLDEVLHTMPIADPQPLD

Variants of: B1
Settings: with pk3c3_human PIK3C3, Q8NEB9

Row | Variant | effect of a mutation on the interaction
1 | G386D | with no effect

Variants of: B1
Settings: with pk3ca_human PIK3CA

Row | Variant | effect of a mutation on the interaction
2 | G386D | with no effect

Variants of: B1
Settings: with pk3cb_human PIK3CB

Row | Variant | effect of a mutation on the interaction
3 | G386D | with no effect

Variants of: B1
Settings: with pk3cg_human PIK3CG

Row | Variant | effect of a mutation on the interaction
4 | G386D | with no effect

Variants of: B1
Settings: with p85a_human PIK3R1, P27986

Row | Variant | effect of a mutation on the interaction
5 | G386D | with no effect

Variants of: B1
Settings: with p85b_human PIK3R2, O00459

Row | Variant | effect of a mutation on the interaction
6 | G386D | with no effect

Variants of: B1
Settings: with dpod1_human POLD1, P28340
Chain of dpod1_human POLD1, P28340 (P28340 whole entry): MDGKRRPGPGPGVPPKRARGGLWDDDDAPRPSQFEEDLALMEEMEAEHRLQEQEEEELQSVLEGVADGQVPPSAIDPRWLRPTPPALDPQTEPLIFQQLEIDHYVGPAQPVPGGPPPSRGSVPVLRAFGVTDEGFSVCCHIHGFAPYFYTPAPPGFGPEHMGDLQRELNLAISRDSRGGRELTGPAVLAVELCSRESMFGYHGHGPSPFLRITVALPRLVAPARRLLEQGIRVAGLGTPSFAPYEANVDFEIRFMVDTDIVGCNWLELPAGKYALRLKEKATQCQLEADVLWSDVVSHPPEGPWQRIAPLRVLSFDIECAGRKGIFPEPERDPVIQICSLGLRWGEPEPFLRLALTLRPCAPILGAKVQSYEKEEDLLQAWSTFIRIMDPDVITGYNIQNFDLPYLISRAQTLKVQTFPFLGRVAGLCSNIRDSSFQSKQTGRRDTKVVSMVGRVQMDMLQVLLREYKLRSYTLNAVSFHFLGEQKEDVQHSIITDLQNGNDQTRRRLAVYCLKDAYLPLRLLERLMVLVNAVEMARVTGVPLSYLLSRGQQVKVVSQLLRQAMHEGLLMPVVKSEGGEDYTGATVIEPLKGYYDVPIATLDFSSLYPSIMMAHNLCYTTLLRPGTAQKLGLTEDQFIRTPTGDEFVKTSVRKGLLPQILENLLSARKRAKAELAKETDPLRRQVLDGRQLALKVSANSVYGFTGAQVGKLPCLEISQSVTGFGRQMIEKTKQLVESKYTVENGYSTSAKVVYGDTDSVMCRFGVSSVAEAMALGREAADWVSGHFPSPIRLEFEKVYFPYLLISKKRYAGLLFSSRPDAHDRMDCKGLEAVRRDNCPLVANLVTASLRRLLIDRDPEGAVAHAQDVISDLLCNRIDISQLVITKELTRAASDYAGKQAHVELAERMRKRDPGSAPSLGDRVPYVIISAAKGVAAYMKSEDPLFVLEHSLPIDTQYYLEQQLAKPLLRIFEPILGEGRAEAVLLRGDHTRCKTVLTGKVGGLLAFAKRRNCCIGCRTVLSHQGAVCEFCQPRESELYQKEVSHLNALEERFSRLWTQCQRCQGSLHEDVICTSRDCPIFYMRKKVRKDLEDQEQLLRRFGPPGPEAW

Row | Variant | effect of a mutation on the interaction
7 | G386D | with no effect

Variants of: B1
Settings: with dpoe1_human POLE

Row | Variant | effect of a mutation on the interaction
8 | G386D | with no effect

Variants of: B1
Settings: with 2aaa_human PPP2R1A

Row | Variant | effect of a mutation on the interaction
9 | G386D | with no effect

Variants of: B1
Settings: with prdm1_human PRDM1, O75626

Row | Variant | effect of a mutation on the interaction
10 | G386D | with no effect

Variants of: B1
Settings: with aapk2_human PRKAA2, P54646

Row | Variant | effect of a mutation on the interaction
11 | G386D | with no effect

Variants of: B1
Settings: with aakb2_human PRKAB2, O43741

Row | Variant | effect of a mutation on the interaction
12 | G386D | with no effect

Variants of: B1
Settings: with prss8_human PRSS8, Q16651

Row | Variant | effect of a mutation on the interaction
13 | G386D | with no effect

Variants of: B1
Settings: with ptk6_human PTK6, Q13882

Row | Variant | effect of a mutation on the interaction
14 | G386D | with no effect

Variants of: B1
Settings: with tf65_human RELA

Row | Variant | effect of a mutation on the interaction
15 | G386D | with no effect

Variants of: B1
Settings: with rheb_human RHEB

Row | Variant | effect of a mutation on the interaction
16 | G386D | with no effect

Variants of: B1
Settings: with rictr_human RICTOR

Row | Variant | effect of a mutation on the interaction
17 | G386D | with no effect

Variants of: B1
Settings: with rnf43_human RNF43, Q68DV7
Chain of rnf43_human RNF43, Q68DV7 (Q68DV7 whole entry): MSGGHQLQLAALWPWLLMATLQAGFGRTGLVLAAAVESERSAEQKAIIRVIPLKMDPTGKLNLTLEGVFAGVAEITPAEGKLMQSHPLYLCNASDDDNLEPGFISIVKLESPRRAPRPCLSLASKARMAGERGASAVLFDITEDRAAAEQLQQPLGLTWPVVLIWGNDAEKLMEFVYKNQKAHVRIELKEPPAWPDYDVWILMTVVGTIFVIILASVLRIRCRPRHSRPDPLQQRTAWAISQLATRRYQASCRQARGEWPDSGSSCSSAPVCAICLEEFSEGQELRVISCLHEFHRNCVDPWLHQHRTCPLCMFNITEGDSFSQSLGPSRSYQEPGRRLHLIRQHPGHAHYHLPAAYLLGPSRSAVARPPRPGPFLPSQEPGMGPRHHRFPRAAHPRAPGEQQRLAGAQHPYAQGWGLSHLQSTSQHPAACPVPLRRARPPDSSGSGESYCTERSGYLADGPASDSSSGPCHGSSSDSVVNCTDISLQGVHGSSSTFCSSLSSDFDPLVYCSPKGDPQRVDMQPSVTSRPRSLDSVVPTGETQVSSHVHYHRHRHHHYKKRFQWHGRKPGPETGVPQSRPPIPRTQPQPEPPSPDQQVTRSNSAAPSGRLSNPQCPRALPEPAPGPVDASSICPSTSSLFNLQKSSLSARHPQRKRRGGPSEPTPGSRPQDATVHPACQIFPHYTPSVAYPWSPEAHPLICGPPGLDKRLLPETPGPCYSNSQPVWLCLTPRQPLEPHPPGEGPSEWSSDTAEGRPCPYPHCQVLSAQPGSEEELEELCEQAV

Row | Variant | effect of a mutation on the interaction
18 | G386D | with no effect

Variants of: B1
Settings: with ros1_human ROS1, P08922

Row | Variant | effect of a mutation on the interaction
19 | G386D | with no effect

Variants of: B1
Settings: with rl5_human RPL5, P46777

Row | Variant | effect of a mutation on the interaction
20 | G386D | with no effect

Variants of: B1
Settings: with ks6b1_human RPS6KB1, P23443
Chain of ks6b1_human RPS6KB1, P23443 (P23443 whole entry, looked up): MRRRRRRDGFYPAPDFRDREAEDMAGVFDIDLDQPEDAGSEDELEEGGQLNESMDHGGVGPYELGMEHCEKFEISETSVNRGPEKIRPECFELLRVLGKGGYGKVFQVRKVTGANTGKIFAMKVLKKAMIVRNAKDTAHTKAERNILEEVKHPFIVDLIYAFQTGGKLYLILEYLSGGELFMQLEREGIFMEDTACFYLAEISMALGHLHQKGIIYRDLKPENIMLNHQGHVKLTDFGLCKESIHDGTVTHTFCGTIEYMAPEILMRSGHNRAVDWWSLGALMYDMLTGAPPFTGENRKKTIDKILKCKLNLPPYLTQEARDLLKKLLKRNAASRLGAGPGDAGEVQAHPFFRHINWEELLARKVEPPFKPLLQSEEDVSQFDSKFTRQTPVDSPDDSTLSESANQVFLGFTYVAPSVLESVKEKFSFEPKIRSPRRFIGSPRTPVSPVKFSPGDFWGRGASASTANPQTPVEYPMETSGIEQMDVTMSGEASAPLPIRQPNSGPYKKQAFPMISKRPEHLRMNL

Row | Variant | effect of a mutation on the interaction
21 | G386D | with no effect

Variants of: B1
Settings: with rptor_human RPTOR

Row | Variant | effect of a mutation on the interaction
22 | G386D | with no effect

Variants of: B1
Settings: with runx1_human RUNX1, Q01196

Row | Variant | effect of a mutation on the interaction
23 | G386D | with no effect

Variants of: B1
Settings: with ruvb1_human RUVBL1, Q9Y265

Row | Variant | effect of a mutation on the interaction
24 | G386D | with no effect

Variants of: B1
Settings: with sdha_human SDHA

Row | Variant | effect of a mutation on the interaction
25 | G386D | with no effect

Variants of: B1
Settings: with setb1_human SETDB1, Q15047

Row | Variant | effect of a mutation on the interaction
26 | G386D | with no effect

Variants of: B1
Settings: with skp2_human SKP2, Q13309

Row | Variant | effect of a mutation on the interaction
27 | G386D | with no effect

Variants of: B1
Settings: with smad1_human SMAD1, Q15797

Row | Variant | effect of a mutation on the interaction
28 | G386D | with no effect

Variants of: B1
Settings: with smad2_human SMAD2, Q15796

Row | Variant | effect of a mutation on the interaction
29 | G386D | with no effect

Variants of: B1
Settings: with smad3_human SMAD3, P84022

Row | Variant | effect of a mutation on the interaction
30 | G386D | with no effect

Variants of: B1
Settings: with smca4_human SMARCA4, P51532

Row | Variant | effect of a mutation on the interaction
31 | G386D | with no effect

Variants of: B1
Settings: with snf5_human SMARCB1, Q12824
Chain of snf5_human SMARCB1, Q12824 (Q12824 whole entry): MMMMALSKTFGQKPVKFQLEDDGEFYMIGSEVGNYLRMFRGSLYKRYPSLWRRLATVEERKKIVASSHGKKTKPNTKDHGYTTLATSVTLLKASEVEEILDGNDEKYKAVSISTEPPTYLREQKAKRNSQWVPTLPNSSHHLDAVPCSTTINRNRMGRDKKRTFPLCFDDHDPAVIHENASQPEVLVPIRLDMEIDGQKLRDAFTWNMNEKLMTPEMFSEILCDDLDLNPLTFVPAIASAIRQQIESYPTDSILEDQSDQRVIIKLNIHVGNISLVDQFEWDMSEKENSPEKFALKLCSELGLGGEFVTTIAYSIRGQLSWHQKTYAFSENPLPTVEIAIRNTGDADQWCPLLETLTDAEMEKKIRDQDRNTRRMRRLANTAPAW

Row | Variant | effect of a mutation on the interaction
32 | G386D | with no effect

Variants of: B1
Settings: with smo_human SMO

Row | Variant | effect of a mutation on the interaction
33 | G386D | with no effect

Variants of: B1
Settings: with socs1_human SOCS1, O15524
Chain of socs1_human SOCS1, O15524 (O15524 whole entry): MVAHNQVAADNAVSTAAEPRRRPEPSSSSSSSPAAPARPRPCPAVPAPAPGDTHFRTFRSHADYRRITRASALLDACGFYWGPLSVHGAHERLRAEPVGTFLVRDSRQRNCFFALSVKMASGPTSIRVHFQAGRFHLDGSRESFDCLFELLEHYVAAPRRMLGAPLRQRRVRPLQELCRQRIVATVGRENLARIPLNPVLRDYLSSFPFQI

Row | Variant | effect of a mutation on the interaction
34 | G386D | with no effect

Variants of: B1
Settings: with sox10_human SOX10, P56693
Chain of sox10_human SOX10, P56693 (P56693 whole entry): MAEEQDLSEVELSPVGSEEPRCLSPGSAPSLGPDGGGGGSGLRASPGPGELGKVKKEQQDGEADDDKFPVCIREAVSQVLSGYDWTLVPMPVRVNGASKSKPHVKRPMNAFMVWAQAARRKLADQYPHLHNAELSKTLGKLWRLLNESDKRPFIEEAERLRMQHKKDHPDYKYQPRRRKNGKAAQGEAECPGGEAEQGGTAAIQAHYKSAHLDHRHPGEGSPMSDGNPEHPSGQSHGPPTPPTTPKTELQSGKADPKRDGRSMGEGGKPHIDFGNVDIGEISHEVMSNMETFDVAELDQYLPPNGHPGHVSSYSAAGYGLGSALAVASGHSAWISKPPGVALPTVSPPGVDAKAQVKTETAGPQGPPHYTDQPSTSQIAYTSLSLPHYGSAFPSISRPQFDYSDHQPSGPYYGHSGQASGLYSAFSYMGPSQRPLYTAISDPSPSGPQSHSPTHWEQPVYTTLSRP

Row | Variant | effect of a mutation on the interaction
35 | G386D | with no effect

Variants of: B1
Settings: with sox2_human SOX2, P48431

Row | Variant | effect of a mutation on the interaction
36 | G386D | with no effect

Variants of: B1
Settings: with sox3_human SOX3, P41225

Row | Variant | effect of a mutation on the interaction
37 | G386D | with no effect

Variants of: B1
Settings: with sox4_human SOX4, Q06945

Row | Variant | effect of a mutation on the interaction
38 | G386D | with no effect

Variants of: B1
Settings: with sox9_human SOX9, P48436

Row | Variant | effect of a mutation on the interaction
39 | G386D | with no effect

Variants of: B1
Settings: with spop_human SPOP

Row | Variant | effect of a mutation on the interaction
40 | G386D | with no effect

Variants of: B1
Settings: with src_human SRC

Row | Variant | effect of a mutation on the interaction
41 | G386D | with no effect

Variants of: B1
Settings: with stat3_human STAT3, P40763
Chain of stat3_human STAT3, P40763 (P40763 whole entry): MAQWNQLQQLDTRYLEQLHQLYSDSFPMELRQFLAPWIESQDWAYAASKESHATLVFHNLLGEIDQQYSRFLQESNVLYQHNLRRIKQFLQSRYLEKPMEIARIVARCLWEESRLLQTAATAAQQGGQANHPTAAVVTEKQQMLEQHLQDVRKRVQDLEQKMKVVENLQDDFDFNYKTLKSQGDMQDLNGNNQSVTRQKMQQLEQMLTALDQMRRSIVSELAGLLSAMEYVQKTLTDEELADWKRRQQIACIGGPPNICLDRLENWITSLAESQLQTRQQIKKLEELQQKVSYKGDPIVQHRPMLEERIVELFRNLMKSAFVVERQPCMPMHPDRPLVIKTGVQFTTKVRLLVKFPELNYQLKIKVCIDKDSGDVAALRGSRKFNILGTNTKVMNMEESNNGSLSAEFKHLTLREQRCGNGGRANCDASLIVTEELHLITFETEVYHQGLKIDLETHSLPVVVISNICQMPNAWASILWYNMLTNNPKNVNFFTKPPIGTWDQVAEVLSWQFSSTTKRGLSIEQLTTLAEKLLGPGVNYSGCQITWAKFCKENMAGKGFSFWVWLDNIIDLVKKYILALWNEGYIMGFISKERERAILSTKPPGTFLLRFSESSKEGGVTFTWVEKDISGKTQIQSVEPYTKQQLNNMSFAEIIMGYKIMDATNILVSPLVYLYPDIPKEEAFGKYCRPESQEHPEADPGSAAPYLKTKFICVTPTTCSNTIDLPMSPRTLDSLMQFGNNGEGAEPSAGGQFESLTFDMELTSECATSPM

Row | Variant | effect of a mutation on the interaction
42 | G386D | with no effect

Variants of: B1
Settings: with stk38_human STK38, Q15208

Row | Variant | effect of a mutation on the interaction
43 | G386D | with no effect

Variants of: B1
Settings: with ksyk_human SYK

Row | Variant | effect of a mutation on the interaction
44 | G386D | with no effect

Variants of: B1
Settings: with eloc_human ELOC

Row | Variant | effect of a mutation on the interaction
45 | G386D | with no effect

Variants of: B1
Settings: with tfe2_human TCF3, P15923

Row | Variant | effect of a mutation on the interaction
46 | G386D | with no effect

Variants of: B1
Settings: with tead1_human TEAD1, P28347

Row | Variant | effect of a mutation on the interaction
47 | G386D | with no effect

Variants of: B1
Settings: with tead2_human TEAD2, Q15562

Row | Variant | effect of a mutation on the interaction
48 | G386D | with no effect

Variants of: B1
Settings: with tead3_human TEAD3, Q99594

Row | Variant | effect of a mutation on the interaction
49 | G386D | with no effect

Variants of: B1
Settings: with tet2_human TET2, Q6N021

Row | Variant | effect of a mutation on the interaction
50 | G386D | with no effect

Variants of: B1
Settings: with tgfr2_human TGFBR2, P37173

Row | Variant | effect of a mutation on the interaction
51 | G386D | with no effect

Variants of: B1
Settings: with tnr14_human TNFRSF14, Q92956
Chain of tnr14_human TNFRSF14, Q92956 (Q92956 whole entry): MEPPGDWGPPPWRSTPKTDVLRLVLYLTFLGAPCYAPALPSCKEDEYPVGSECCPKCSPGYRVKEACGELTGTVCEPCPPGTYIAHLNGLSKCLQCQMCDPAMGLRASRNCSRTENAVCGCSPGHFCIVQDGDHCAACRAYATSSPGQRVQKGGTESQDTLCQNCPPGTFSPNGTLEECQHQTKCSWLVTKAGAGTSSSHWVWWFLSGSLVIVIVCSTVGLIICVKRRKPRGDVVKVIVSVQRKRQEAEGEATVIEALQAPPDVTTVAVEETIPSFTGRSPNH

Row | Variant | effect of a mutation on the interaction
52 | G386D | with no effect

Variants of: B1
Settings: with tpx2_human TPX2, Q9ULW0

Row | Variant | effect of a mutation on the interaction
53 | G386D | with no effect

Variants of: B1
Settings: with trrap_human TRRAP

Row | Variant | effect of a mutation on the interaction
54 | G386D | with no effect

Variants of: B1
Settings: with tsc2_human TSC2, P49815

Row | Variant | effect of a mutation on the interaction
55 | G386D | with no effect

Variants of: B1
Settings: with tshr_human TSHR

Row | Variant | effect of a mutation on the interaction
56 | G386D | with no effect

Variants of: B1
Settings: with vhl_human VHL

Row | Variant | effect of a mutation on the interaction
57 | G386D | with no effect

Variants of: B1
Settings: with wt1_human WT1, P19544

Row | Variant | effect of a mutation on the interaction
58 | G386D | with no effect

Variants of: B1
Settings: with wwtr1_human WWTR1, Q9GZV5

Row | Variant | effect of a mutation on the interaction
59 | G386D | with no effect

Variants of: B1
Settings: with xirp2_human XIRP2, A4UGR9

Row | Variant | effect of a mutation on the interaction
60 | G386D | with no effect

Variants of: B1
Settings: with xpo1_human XPO1, O14980

Row | Variant | effect of a mutation on the interaction
61 | G386D | with no effect

Variants of: B1
Settings: with 1433e_human YWHAE

Row | Variant | effect of a mutation on the interaction
62 | G386D | with no effect

Variants of: B1
Settings: with 1433z_human YWHAZ

Row | Variant | effect of a mutation on the interaction
63 | G386D | with no effect

Variants of: B1
Settings: with arc1a_human ARPC1A

Row | Variant | effect of a mutation on the interaction
64 | G386D | increasing interaction strength

Variants of: B1
Settings: with axin2_human AXIN2, Q9Y2T1

Row | Variant | effect of a mutation on the interaction
65 | G386D | increasing interaction strength

Variants of: B1
Settings: with btg1_human BTG1, P62324

Row | Variant | effect of a mutation on the interaction
66 | G386D | increasing interaction strength

Variants of: B1
Settings: with erbb3_human ERBB3, P21860

Row | Variant | effect of a mutation on the interaction
67 | G386D | increasing interaction strength

Variants of: B1
Settings: with gna13_human GNA13, Q14344
Chain of gna13_human GNA13, Q14344 (Q14344 whole entry): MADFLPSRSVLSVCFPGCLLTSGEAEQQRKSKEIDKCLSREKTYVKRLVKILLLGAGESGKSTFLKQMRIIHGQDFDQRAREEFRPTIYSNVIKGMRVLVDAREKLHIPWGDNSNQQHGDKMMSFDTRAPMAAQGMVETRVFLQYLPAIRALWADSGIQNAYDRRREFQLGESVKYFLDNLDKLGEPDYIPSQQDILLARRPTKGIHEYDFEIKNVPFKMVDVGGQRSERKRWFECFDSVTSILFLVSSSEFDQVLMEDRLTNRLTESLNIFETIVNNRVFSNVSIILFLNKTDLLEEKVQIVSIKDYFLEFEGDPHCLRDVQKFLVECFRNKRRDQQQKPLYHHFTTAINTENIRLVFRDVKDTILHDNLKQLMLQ

Row | Variant | effect of a mutation on the interaction
68 | G386D | increasing interaction strength

Variants of: B1
Settings: with gsk3b_human GSK3B

Row | Variant | effect of a mutation on the interaction
69 | G386D | increasing interaction strength

Variants of: B1
Settings: with hdac1_human HDAC1, Q13547

Row | Variant | effect of a mutation on the interaction
70 | G386D | increasing interaction strength

Variants of: B1
Settings: with hnf1a_human HNF1A

Row | Variant | effect of a mutation on the interaction
71 | G386D | increasing interaction strength

Variants of: B1
Settings: with notc2_human NOTCH2, Q04721

Row | Variant | effect of a mutation on the interaction
72 | G386D | causing an interaction

Variants of: B1
Settings: with ntrk2_human NTRK2, Q16620

Row | Variant | effect of a mutation on the interaction
73 | G386D | causing an interaction

Variants of: B1
Settings: with dpod1_human POLD1, P28340
Remark: another data set of the same source

Row | Variant | effect of a mutation on the interaction
74 | G386D | increasing interaction strength

Variants of: B1
Settings: with socs1_human SOCS1, O15524
Remark: another data set of the same source

Row | Variant | effect of a mutation on the interaction
75 | G386D | increasing interaction strength
